Data on 15 sequences can be found in a protein production outcome set (Wang et al. 2014).
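Note: failed if final PepcDB status was selected cloned or expressed and not failed if soluble or beyond.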

The nature of the series: label from the status in PepcDB records.
For the sequence “MKRSDKYTDDYIEQRYESQRPHYNTYYQPIGKPPKKKKSKRIFLKAIITILILLIIFFGVMYFISSRANVDDLKSIENKSDFVATENMPNYVKGAFISMEDERFYKHHGFDIKGTTRALFSTISDRDVQGGSTITQQVVKNYYYDNERSFTRKIKELFVARKVEKQYSKNQILSFYMNNIYYGDNQYTVEGAANHYFGVTVDKNNSNMSQISVLQSAILASKVNAPSVYDVNDMSNNYINRVKTNLEKMKQQNFISESQYQEAMSQLGN”, the protein production entry is on record as “not failed”.
On to “PTSSTTATLVMGDALAVALLKARGFTAEDFALSHPGGALGRKLLLRVSDIMHTGDEIPHVNKHATLRDALLEITRKNLGMTVICDESMKIDGIFTDGDLRRVFDMGGDMRQLGIAEVMTPGGIRVRPGILAVDALNLMQSRHITSVLVADGDQLLGVLHMHDLLRA”, for which the protein production result is recorded as “failed”.
In the case of “MAAPELLIPWADFLLCVALIAVAGNRLSRYGDVIAEKTGLSGSWIGLILLATATSLPELITGAAAVTAAGAPDIAAGDVLGSCVFNLVILVALDFLHRHESVYRRASQGHLLSAGFGIILLGLVGVNLLLADKHIVPTLGWVGLYSPLLGLLYLFSMRAVFLYEREQMAAFTEDMTEQYPGIRLRRAVMWYVAVAAVVVGAGVWLPSIGTTLAEVMGWNKSFVGTLFVAAATSMPELSVTIGAVRIRAVDMAIANLLGSNLFDLCILAIDDLAYLPGPLLSHVSSVHALSAFSAMVMTGIFIVGLLYRAGTRLFKTVGWVSIALLLVYLGNAYVLYLYDK”, the protein production entry is “failed”.
Under “SRGPEPGPQPTMEGDVLDTLEALGYKGPLLEEQALTKAAEGGLSSPEFSELCIWLGSQIKSLCNLEESITSAGRDDLESFQLEISGFLKEMACPYSVLISGDIKDRLKKKEDCLKLLLFLSTELQASQILQNKKHKNSQLDKNSEVYQEVQAMFDTLGIPKSTTSDIPHMLNQVESKVKDILSKVQKNHVGKPLLKMDLNSEQAEQLERINDALSCEYECRRRMLMKRLDVTVQSFGWSDRAKVKTDDIARIYQPKRYALSPKTTITMAHLLAAREDLSKIIRTSSGTSREKTACAINKVGVSFSTVENELMISYLMFLQILVYFSFMSW” stands “not failed”; under “MKKRILAVAVTSMLLSASVFAQETVVPSRVGDLKFESDFPTQETMKNMLNEMDFQRATQAYLWGIPASSIMEWLNVSRNDFKFEEGQMGFFNTLKQKQGIITANFTTPYVIGTWNLEKTGPLIINLPEAKMAGMMLDVHQRVLSDLSLLGPDKGKGGKYLIVPPGEKYKDLNPKGYYVIRPKTNVVYGGIRILEPDVDRVVKQVVPNITTQPYADGKLGRKIPVAQVPEIDWTHIPKDGLEYWKTIHQIIQENPVEERDRFVMAQLKFLGIEKGKPFNPTEEQKKILLEASKVGRAMAQSNDYTKRFTQPYWKGTNWKDAISVSLDQRSENYDELDERAAWFYEAITVSRGMKSTIPGFGQRYLVTYQDSDGNWLSGEHTYKLHVPANVPASNFWSTTVYDENNRLMIINDAGSPDISSRKNLKVNSDGSIDVYYGPKPVKGYENNWVQTNPGEGWFTYFRFYGPTEKMFDKSWTMGDIELVKLEHHHHHH”, “not failed”.
For “MIKKNNLILIKLKNSMKKMIKIAFVAAFVAIAGYGVYTNQKSETLSDLTLANVEALAGGESGGYYCCSPYSYECYRIVGGGIVHGLRLPLPC”, the protein production result is reported as “failed”.
As for “MRKRIEWIDIAKGSAILAVVIGHTLGPYNGQFFGSLIFAFHMPIFFMLSGYLYRSRPARQECQRGIINLLLPYLATAVVLLVVSAIARLLPNPLLNAYFPSWRQGLIATAYGAGSAVFNPWHWQVQPIGAVWFLLSMFIALQLFNGVMLLTARRHQRWRQAIVRGGVFAIFAILGGWLGHAAYLPWAVNAALLAQLFLYAGYLVKQTALLSRISSAWYLLFTFMWLVSAFQGYFALTVPTSPNLLISVMGGVAGSLCIIRVSDWLSHYPNARPIKWLKRYGQLSLVVLCFHLIDLNVIGIEGWLTNHLITHMGPLVTTIIAISYRIGFVTVAMLAIPHLPGIRACFLPRQYLFRRLQRR”, the protein production result is listed as “failed”.
In the case of “MTVIDDRDMMGAESSELSEAGARDYFELLKPRVMSLVVFTAFAGLVLAPGEINPILGLIAILCIAVGAGASGALNMWYDADIDAVMTRTAKRPIPSGRIAPREALAFGLTLSAFSVVILGLAVNWFSAGLLAFTIFFYAVVYTMWLKRSTPQNIVIGGAAGAFPPMLGWACVTGGVSLDSVILFLIIFLWTPAHFWALALFKMRDYGAVGIPMMPNVAGERSTKNQMIVYAVLTAAAAVAPFFTGLASAGYGIFAAVLSAIFVYCSFDVRRMPEGDEKMLPAKKMFAYSVLYLFAIFSGLLADHFAPALKAVISGVL”, the protein production entry is given as “failed”.
The value for “MIFERIKSEGLAHLSYLIGSGDEAIVIDPRRDCQVYFDLARSKGMKIKYIFETHRNEDYIIGSLELEKLTDAGIYHGSGVDFKYGNILKKDRQEFIFGALKLTALHTPGHTDESMSYVLTDPDAGKEPIMVFTGDALFVGDVGRTDLYGPEEVPRLAANLYDSIFNKILPLGDGVILCPAHGAGSLCGGAISNREYSTLGLEKVQNPVLKKTEKEEFVKFKLEEKLEFPPYFKKMEQYNLQGPPLLQSLPIPKLLSPDEFKAEMEKGAVVVDTRMPHSFGGALIKGSYSIWLEGLPSFAGWMLPYDKPILLVLEEKEQLETAVRYLVRLGYDNMRGFLNGGIAAWYMEALQIDGFNLLSVHDLKSKLEKDEEIVILDVRSNEEWEEGHIEGARHIYVGHVEENLDEIPKDCPIVVYCGSARRSNIAASVLKKHGYRKIYNVLGSMVAWKNAGYEVVK” was “failed”.
The value for “KMMVLYNETSGSSESKEIAERFKKAAEARGEAVILQPSNPDIDPEEMRKNAKENQVGVLVVIGGDGTIHHAVQNFKDTIRDYQIGIIPGGTVNNFARVLSIPLKEEDAFETILAGQTTPVDFGMVNQD” was “not failed”.
The value for “MALPLSQLPQEIIREVRGRKGLAFLAFVIVSFAVLGAGFVWPYKYQSETIIFVDDRNIIAPLMEGRAVATEINDRTSAAKELLMSRSLIEKVALDPEIYPDAPSDPAALEYRIANIRSGLSVRPRGDSYFSIGFSSTSQMEAFRVAQKLGQVFIEETKDRKRAESRNAYDFIDKQVKSYEQQLAQAENRLKEFLSENTDGTEQEANARMAQLRNQLELAELEKKELETRAASLQSQLGGIRPTITQGRTEDAYRERIRILEERLDSLRLQYHDTYPDIVILREQLAELRKQRDQAAERPTDVSSLEGEEAVNPLYQELRANLSTTRADMATVDTRITSLSRLLEQQAKRMERIQANKAQYSELTRDMEVNREIYDDLLKRREKARVSMHLDIEGQGLNYRINETAQFPRTPSGPQFSMFAAAGLFLGLAAPFGAVAGLLQVDPRIRARKQLEEDIGLPVLVEIPEVRTPYEKRRDRKVTLLIGIFAVLTVTVYVTIVVLAQMGVI” was “failed”; that for “MANDGATVFWLSFLAIILGFLSWKFKKIGGISLIAISIYGLFVNGLFFIFAFVFLMIAGILSFKIKPTSPKDVKIAN” was “failed”.
As for “MIVKEDSVEAVGAQLKVYHQQYQDKSREYDQLYEEYTRTSQELQMKRTAIEAFNETIKIFEEQGQTQEKCSKEYLERFRREGNEKEMQRILLNSERLKSRIAEIHESRTKLEQQLRAQASDNREIDKRMNSLKPDLMQLRKIRDQYLVWLTQKGARQKKINEWLGIKNETEDQYALMEDLEHHHHHH”, the protein production entry is recorded as “failed”.
For “MDYVVSYLSIEFGLCFILFFVLYWGLGFSLRLQNVLLLVASYAILASFSLNFLYILLGYTALVYLLGLLSQRYPGRGWVNGLMLLLVLGAFYLFKYQDFFTSTVQNAFAQFGVEVSLPLLEVLLPVGLSFYAFHSVSYLVSINRRELTPGSPFDLALYLAFFPSLIAGPVNRAIPMLAQINPPQLRQVLEPQRALGLIAVAVVKLFFLSSWLANEWVDPVFDSPVAYSAEQILRAVYGYSFLIYFNFSGYTDLVTGIALLLGFRLPQNFNYPYAARNLKEFWGRWHISLSTFIRDYVYIPLGGNRGPVWRGNLNMLLAMLISGLWHGASANFIIWGALHGIGLALYKLCSPLLARGPSWIGADLMARLLTFHYVAFAWIFFRCATLSDAMDMLKGLGELSLGGLLGGGASLLGCLLFVAFYPRIVALLRRLFDAATGLPWLFYPVPLGLFICVVIFASPSGVPGFIYASF”, the protein production entry is “failed”.
Take “MHALIVVAHHHPRSLTHALAARIAEGVVRAGHSAETADLAAEGFEPRFGLADHAVHRGQASPPADVLAEQARIDRADTLVLVYPIYWWSMPALLKGWIDRVFSNGWAFDYSIGGDLRKKLQRLRVVLVGVGGADAGTFERHGYAGAMRTQIDHGIFDYCGARVVRSELLLESESADPIRHLDQALHIGSQLFAARGAQGAAQAQPLEA”: the protein production entry is recorded as “failed”.
